In IntAct's records for PubMed 22927393:

B1: Epsin-1 (Saccharomyces cerevisiae), Q12518 (parent)
chain: MSKQFVRSAKNLVKGYSSTQVLVRNATSNDNHQVSKDSLIELAEKSYDSADFFEIMDMLDKRLNDKGKYWRHIAKALTVIDYLIRFGSENCVLWCRENLYIIKTLKEFRHEDDEGIDQGQIVRVKAKELTALLSDDERLNEERNMNIKGRNRKGRRRRGTGRSDENDDDLQRAISASRLTAEEDERRRKQDEDYETALQLSKEEEELKRLQDLQRMQQQQGQQQLQQPMYYDIFGNPITPEEYAQFQLQQQQQQQQQQLQQQPMYYDVFGNPITPEELAQFQQQQQLQEQQYLASMQQQQQAMSNNPFAKSEQSSSSPKRNQLVAASSPQQLQQQKQQEPLIQNRTGNQSMTDKYSKLNELLATGTGIDTFGNVGEARIPAQHTKTGTFINSQGTGYRQVSDDPNHNPFLNSQYTGLPSTSVVPTQTGYGFGNQSQQQSQNNGSNNRGYTLIDL
partner: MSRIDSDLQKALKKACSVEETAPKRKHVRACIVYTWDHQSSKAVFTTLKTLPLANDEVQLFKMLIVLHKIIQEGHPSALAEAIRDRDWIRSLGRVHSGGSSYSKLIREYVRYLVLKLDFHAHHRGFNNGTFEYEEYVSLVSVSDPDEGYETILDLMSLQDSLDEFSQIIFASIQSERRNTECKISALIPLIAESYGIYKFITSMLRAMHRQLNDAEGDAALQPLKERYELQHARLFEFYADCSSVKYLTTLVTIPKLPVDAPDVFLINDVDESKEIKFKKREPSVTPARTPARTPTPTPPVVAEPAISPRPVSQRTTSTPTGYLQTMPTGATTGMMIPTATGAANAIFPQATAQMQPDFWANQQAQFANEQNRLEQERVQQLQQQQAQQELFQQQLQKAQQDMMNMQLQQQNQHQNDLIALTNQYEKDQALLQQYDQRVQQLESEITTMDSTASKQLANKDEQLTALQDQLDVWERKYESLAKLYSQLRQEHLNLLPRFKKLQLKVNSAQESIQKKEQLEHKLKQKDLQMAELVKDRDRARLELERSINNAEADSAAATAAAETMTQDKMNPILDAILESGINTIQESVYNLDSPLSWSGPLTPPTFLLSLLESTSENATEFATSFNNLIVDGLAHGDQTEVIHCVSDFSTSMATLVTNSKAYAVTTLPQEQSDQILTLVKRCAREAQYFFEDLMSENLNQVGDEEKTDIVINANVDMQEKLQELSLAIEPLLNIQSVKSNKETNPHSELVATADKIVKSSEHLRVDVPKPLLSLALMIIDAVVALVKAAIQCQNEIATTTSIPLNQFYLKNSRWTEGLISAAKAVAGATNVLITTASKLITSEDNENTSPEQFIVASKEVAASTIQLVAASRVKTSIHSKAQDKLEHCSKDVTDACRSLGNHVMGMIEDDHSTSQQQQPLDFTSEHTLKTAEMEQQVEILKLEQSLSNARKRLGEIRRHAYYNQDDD

Variants of: B1
Conditions: with sla2_yeast SLA2, P33338

Variant | effect of a mutation on the interaction
T104A | disrupting interaction strength
